Among the targets are Gly189Ala NFU1 (human) (UniProt Q9UMS0); Gly189Arg NFU1 (human) (UniProt Q9UMS0); Gly189Lys NFU1 (human) (UniProt Q9UMS0).
Assay in all cases: AUC
Experiment [1] addresses native human NFU1 (human) (UniProt Q9UMS0).

Take “Gly189Ala NFU1 (from UniProt Q9UMS0 10-254) (natural protein)”: in the experiment with Gly189Ala NFU1 (human), the percent dimer was 3%, the percent dimer with 1 mM TCEP was determined as 3%, the percent monomer came to 95% and the percent monomer with 1 mM TCEP amounted to 95%. This substance also came in with a stoichiometry N with Gly189Ala NFU1 (human) of 2.

As to “Gly189Arg NFU1 (from UniProt Q9UMS0 10-254) (natural protein)”, in the experiment with Gly189Arg NFU1 (human), the percent dimer was 4%, the percent dimer with 1 mM TCEP is 4%, the percent monomer is 95% and the percent monomer with 1 mM TCEP is 94%. In addition, the stoichiometry N with Gly189Arg NFU1 (human) worked out at 2.

In the experiment with Gly189Lys NFU1 (human), “Gly189Lys NFU1 (from UniProt Q9UMS0 10-254) (natural protein)” yielded a percent dimer of 5%, a percent dimer with 1 mM TCEP of 6%, a percent monomer with 1 mM TCEP of 89% and a stoichiometry N of 2.

In experiment [1], “native human NFU1 (from UniProt Q9UMS0 10-254) (natural protein)” displayed a percent dimer of 52%, a percent dimer with 1 mM TCEP of 44%, a percent monomer of 45% and a percent monomer with 1 mM TCEP of 44%.

The record behind these values is paper PMC5696030.
